Test [1] concerns the target T1, CD40L over-expressed on Expi293 cells (UniProt P29965 1-261, limits assumed).
T1 construct: whole, on cells; also called cytokine over-expressing Expi293 cells
T1 sequence (looked up): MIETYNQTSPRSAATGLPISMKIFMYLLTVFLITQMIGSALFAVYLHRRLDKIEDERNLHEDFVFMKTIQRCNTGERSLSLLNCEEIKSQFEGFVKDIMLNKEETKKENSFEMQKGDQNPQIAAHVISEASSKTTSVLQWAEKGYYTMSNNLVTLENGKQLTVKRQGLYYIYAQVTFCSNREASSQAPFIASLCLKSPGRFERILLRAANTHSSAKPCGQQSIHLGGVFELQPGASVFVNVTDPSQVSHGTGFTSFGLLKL
The experiment in a line: flow cytometry, 100 nM antibody, CD40L-Expi293 vs parent Expi293 cells.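 Note: ratio is the mean fluorescence intensity on CD40L-overexpressing Expi293 cells divided by the mean fluorescence intensity on parental Expi293 cells.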 A general note: A flow cytometer gives signals particle by particle.
Procedure: All incubations and washes were in buffer containing PBS+1% BSA. MFI Ratio is defined by the mean fluorescence intensity (MFI) of the cytokine over-expressing Expi293 cell over the Expi293 parent cell. […] EC50 was calculated in GraphPad Prism.

The target in test [2] is T2, CD40L (UniProt P29965 113-261, limits assumed).
T2 construct: SPR analyte
T2 sequence (looked up): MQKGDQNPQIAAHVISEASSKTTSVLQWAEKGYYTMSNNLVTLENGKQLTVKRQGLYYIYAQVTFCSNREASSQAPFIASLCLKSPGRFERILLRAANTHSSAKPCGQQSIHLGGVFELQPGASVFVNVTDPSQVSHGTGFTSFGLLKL
The test can be described thus: SPR (Carterra LSA), antibody amine-coupled, 1:1 model.
Procedure: SPR experiments were performed on a Carterra LSA SPR biosensor equipped with a HC30M chip at 25° C. in HBS-TE. Antibodies were diluted to 10 μg/mL and amine-coupled to the sensor chip by EDC/NHS activation, followed by ethanolamine HCl quenching. Increasing concentrations of analyte were flowed over the sensor chip in HBS-TE with 0.5 mg/mL BSA with 5-minute association and 15-minute dissociation. Following each injection cycle the surface was regenerated with 2× 30-second injections of IgG elution buffer (Thermo). Data were analyzed in Carterra's Kinetics Tool software with 1:1 binding model.

For orientation: Kd means the free concentration of one partner at which half of the binding sites on the other are occupied at equilibrium, for simple one-to-one binding. Read a high Kd as lower affinity. As a reminder, the koff is the rate constant with which the complex falls apart. Higher therefore signals a short-lived complex. As usually defined, the kon is the rate constant with which the complex forms. Read a high kon as fast association.

B1: CD40L-3 (VHH)
VHH: EVQLVESGGGLVQPGGSLRLSCAASGRIFSTYFMGWFRQAPGKEREWVSSIYSDGSTTDYADSVKGRFTISADNSKNTAYLQMNSLKPEDTAVYYCAAWLNGGNRWGQGTLVTVSS
Take B1: the “100 nM FACS (MFI Ratio)” value in test [1] was 87.9 ratio. In test [2], this molecule returned a dissociation constant (Kd) of 2.91 nM, a koff of 0.000159 s⁻¹ and an on-rate (kon) of 54700 M⁻¹ s⁻¹.

B2: CD40L-49 (VHH)
VHH: EVQLVESGGGLVQPGGSLRLSCAASGRTFSRYYMGWFRQAPGKEREFVAAIYWSNGKTQYADSVKGRFTISADNSKNTAYLQMNSLKPEDTAVYYCAAWLNGGNRWGQGTLVTVSS
B2: the “100 nM FACS (MFI Ratio)” value in test [1] came out at 36.8 ratio. Besides, in test [2], the Kd turned out to be 47.9 nM, the koff was determined as 0.00121 s⁻¹ and the on-rate constant (kon) came out at 25300 M⁻¹ s⁻¹.

B3: CD40L-37 (VHH)
VHH: EVQLVESGGGLVQPGGSLRLSCAASGRTFSSYYMGWFRQAPGKEREEVATFYTGDGRTYYADSVKGRFTISADNSKNTAYLQMNSLKPEDTAVYYCAAWLNGGNRWGQGTLVTVSS
As to B3, the “100 nM FACS (MFI Ratio)” value in test [1] was found to be 97.7 ratio. In test [2], the Kd was 2.39 nM, the koff was determined as 0.000199 s⁻¹ and the kon is 83300 M⁻¹ s⁻¹.

B4: CD40L-7 (VHH)
VHH: EVQLVESGGGLVQPGGSLRLSCAASGHTFSSYYMGWFRQAPGKEREFVAAIYSGGITTHYADSVKGRFTISADNSKNTAYLQMNSLKPEDTAVYYCAAWLNGGNRWGQGTLVTVSS
Take B4: the “100 nM FACS (MFI Ratio)” value in test [1] was found to be 95.4 ratio. In test [2], this molecule showed a Kd of 6.93 nM, a koff of 0.000121 s⁻¹ and an on-rate constant (kon) of 17400 M⁻¹ s⁻¹.

B5: CD40L-13 (VHH)
VHH: EVQLVESGGGLVQPGGSLRLSCAASGFTFGNYDMGWFRQAPGKEREFVAAIDASGGFTEYADSVKGRFTISADNSKNTAYLQMNSLKPEDTAVYYCASDHYDTDTKSDVYNWGQGTLVTVSS
B5: the “100 nM FACS (MFI Ratio)” value in test [1] was determined as 37.3 ratio. In test [2], this molecule registered a Kd of at most 0.0113 nM, a koff of at most 1e-05 s⁻¹ and an on-rate (kon) of 888000 M⁻¹ s⁻¹.

B6: CD40L-5 (VHH)
VHH: EVQLVESGGGLVQPGGSLRLSCAASGLLFSSYDMGWFRQAPGKEREFVAAIDASGGFTEYADSVKGRFTISADNSKNTAYLQMNSLKPEDTAVYYCASDHYDTDTKSDVYNWGQGTLVTVSS
B6: the “100 nM FACS (MFI Ratio)” value in test [1] is 72.9 ratio. In test [2], this molecule displayed a Kd of 0.295 nM, a koff of 0.000196 s⁻¹ and a kon of 662000 M⁻¹ s⁻¹.

B7: CD40L-50 (VHH)
VHH: EVQLVESGGGLVQPGGSLRLSCAASGFTFDDSDMGWFRQAPGKEREFVAAISMSGEDAAYADSVKGRFTISADNSKNTAYLQMNSLKPEDTAVYYCASDHYDTDTKSDVYNWGQGTLVTVSS
On to B7, for which the “100 nM FACS (MFI Ratio)” value in test [1] came out at 131 ratio. In addition, in test [2], the dissociation constant Kd was found to be 0.7 nM, the dissociation rate constant (koff) turned out to be 0.000577 s⁻¹ and the association rate constant (kon) is 824000 M⁻¹ s⁻¹.

B8: CD40L-40 (VHH)
VHH: EVQLVESGGGLVQPGGSLRLSCAASGFTFDDYDMGWFRQAPGKERELVAAISATGDDTYYADSVKGRFTISADNSKNTAYLQMNSLKPEDTAVYYCASDHYDTDTKSDVYNWGQGTLVTVSS
Regarding B8, the “100 nM FACS (MFI Ratio)” value in test [1] came out at 74.2 ratio. In test [2], the affinity, expressed as Kd, was 0.806 nM; the off-rate constant (koff) stood at 0.000319 s⁻¹; the kon was 396000 M⁻¹ s⁻¹.

B9: CD40L-54 (VHH)
VHH: EVQLVESGGGLVQPGGSLRLSCAASGFTFDDYDMGWFRQAPGKEREFVAAIAWTGTNSYYADSVKGRFTISADNSKNTAYLQMNSLKPEDTAVYYCASDHYDTDTKSDVYNWGQGTLVTVSS
B9: the “100 nM FACS (MFI Ratio)” value in test [1] is 100 ratio. In test [2], this molecule yielded a Kd of 0.758 nM, a koff of 0.000399 s⁻¹ and a kon of 526000 M⁻¹ s⁻¹.

B10: CD40L-31 (VHH)
VHH: EVQLVESGGGLVQPGGSLRLSCAASGFTFDDSDMGWFRQAPGKEREFVAVVNWSGSSESYADSVKGRFTISADNSKNTAYLQMNSLKPEDTAVYYCASDHYDTDTKSDVYNWGQGTLVTVSS
As to B10, the “100 nM FACS (MFI Ratio)” value in test [1] stood at 18.5 ratio. In test [2], the affinity, expressed as Kd, was 6.5 nM; the dissociation rate constant (koff) is 0.000581 s⁻¹; the kon is 89300 M⁻¹ s⁻¹.

B11: CD40L-11 (VHH)
VHH: EVQLVESGGGLVQPGGSLRLSCAASGRTWNDLDMGWFRQAPGKEREFVAAISMSGEDAAYADSVKGRFTISADNSKNTAYLQMNSLKPEDTAVYYCASDHYDTDTKSDVYNWGQGTLVTVSS
B11: the “100 nM FACS (MFI Ratio)” value in test [1] amounted to 84 ratio. In test [2], this molecule gave a Kd of 0.882 nM, a koff of 0.000574 s⁻¹ and a kon of 651000 M⁻¹ s⁻¹.

B12: CD40L-14 (VHH)
VHH: EVQLVESGGGLVQPGGSLRLSCAASGFTFSTYDMGWFRQAPGKEREFVAAVSQSGLLTFYADSVKGRFTISADNSKNTAYLQMNSLKPEDTAVYYCASDHYDTDTKSDVYNWGQGTLVTVSS
Regarding B12, the “100 nM FACS (MFI Ratio)” value in test [1] was found to be 22.5 ratio. For the same molecule, in test [2], the dissociation constant (Kd) stood at 1.78 nM, the koff came to 0.000538 s⁻¹ and the kon came out at 303000 M⁻¹ s⁻¹.

B13: CD40L-56 (VHH)
VHH: EVQLVESGGGLVQPGGSLRLSCAASGFTLDHYDMGWFRQAPGKEREFVAVINWSGAYTEYADSVKGRFTISADNSKNTAYLQMNSLKPEDTAVYYCASDHYDTDTKSDVYNWGQGTLVTVSS
As to B13, the “100 nM FACS (MFI Ratio)” value in test [1] amounted to 68.4 ratio. In test [2], this molecule yielded a dissociation constant (Kd) of 0.422 nM, a koff of 0.000208 s⁻¹ and an on-rate (kon) of 492000 M⁻¹ s⁻¹.

B14: CD40L-32 (VHH)
VHH: EVQLVESGGGLVQPGGSLRLSCAASGFGFGSYDMGWFRQAPGKEREFVAAIYSDGGSAYYADSVKGRFTISADNSKNTAYLQMNSLKPEDTAVYYCASDHYDTDTKSDVYNWGQGTLVTVSS
Turning to B14, in test [1], the “100 nM FACS (MFI Ratio)” value is 152 ratio. In test [2], this molecule had a Kd of 0.272 nM, an off-rate (koff) of 6.18e-05 s⁻¹ and a kon of 227000 M⁻¹ s⁻¹.

B15: CD40L-8 (VHH)
VHH: EVQLVESGGGLVQPGGSLRLSCAASGRTFSRSDMGWFRQAPGKEREFVAVISWSGAYTEYADSVKGRFTISADNSKNTAYLQMNSLKPEDTAVYYCASDHYDTDTKSDVYNWGQGTLVTVSS
Turning to B15, in test [1], the “100 nM FACS (MFI Ratio)” value stood at 80.9 ratio. Moreover, in test [2], the Kd was 1.37 nM, the koff was found to be 0.0004 s⁻¹ and the kon was 291000 M⁻¹ s⁻¹.

B16: CD40L-43 (VHH)
VHH: EVQLVESGGGLVQPGGSLRLSCAASGFSLDDYDMGWFRQAPGKEREFVAVISWSGAYTEYADSVKGRFTISADNSKNTAYLQMNSLKPEDTAVYYCASDHYDTDTKSDVYNWGQGTLVTVSS
On to B16, for which, in test [1], the “100 nM FACS (MFI Ratio)” value was determined as 83.8 ratio. In test [2], this molecule yielded a Kd of 0.251 nM, an off-rate constant (koff) of 0.000173 s⁻¹ and a kon of 690000 M⁻¹ s⁻¹.

B17: CD40L-42 (VHH)
VHH: EVQLVESGGGLVQPGGSLRLSCAASGSMSSINAMGWFRQAPGKEREFVAVIYSSDGSTLYADSVKGRFTISADNSKNTAYLQMNSLKPEDTAVYYCAAEPYGSGSSLISEYDWGQGTLVTVSS
Regarding B17, in test [1], the “100 nM FACS (MFI Ratio)” value came to 40 ratio. Further, in test [2], binding was put at a Kd of 2.46 nM, the off-rate (koff) was 0.000639 s⁻¹ and the on-rate constant (kon) was found to be 260000 M⁻¹ s⁻¹.

B18: CD40L-6 (VHH)
VHH: EVQLVESGGGLVQPGGSLRLSCAASGSIDNIHAMGWFRQAPGKEREFIAVIYWRDGSSLYADSVKGRFTISADNSKNTAYLQMNSLKPEDTAVYYCAAEPYGSGSSLISEYDWGQGTLVTVSS
Take B18: in test [1], the “100 nM FACS (MFI Ratio)” value was found to be 67.4 ratio. Further, in test [2], binding was put at a Kd of 0.319 nM, the koff came out at 8.01e-05 s⁻¹ and the kon was determined as 251000 M⁻¹ s⁻¹.

B19: CD40L-12 (VHH)
VHH: EVQLVESGGGLVQPGGSLRLSCAASGRSFSTYTMGWFRQAPGKEREFVAVIYTSDGANLYADSVKGRFTISADNSKNTAYLQMNSLKPEDTAVYYCAAETYGSGSSLMSEYDWGQGTLVTVSS
On to B19, for which, in test [1], the “100 nM FACS (MFI Ratio)” value is 46.2 ratio. In test [2], this molecule yielded a Kd of 1.03 nM, a koff of 0.000266 s⁻¹ and an on-rate (kon) of 257000 M⁻¹ s⁻¹.

B20: CD40L-9 (VHH)
VHH: EVQLVESGGGLVQPGGSLRLSCAASGSGLSINAMGWFRQAPGKEREFVAVIYSSDGSTLYADSVKGRFTISADNSKNTAYLQMNSLKPEDTAVYYCAAEPYGSGSSLISEYDWGQGTLVTVSS
As to B20, the “100 nM FACS (MFI Ratio)” value in test [1] was 21.1 ratio. In test [2], this molecule had a dissociation constant Kd of 1.13 nM, an off-rate (koff) of 0.000284 s⁻¹ and an on-rate (kon) of 251000 M⁻¹ s⁻¹.

B21: CD40L-17 (VHH)
VHH: EVQLVESGGGLVQPGGSLRLSCAASGRTSNIYAMGWFRQAPGKEREFVAVIYSSDGSTLYADSVKGRFTISADNSKNTAYLQMNSLKPEDTAVYYCAAEPYGSGSSLMSEYDWGQGTLVTVSS
In the case of B21, in test [1], the “100 nM FACS (MFI Ratio)” value was 45.6 ratio. In addition, in test [2], the Kd was 2.32 nM, the koff is 0.000363 s⁻¹ and the kon was determined as 157000 M⁻¹ s⁻¹.

B22: CD40L-4 (VHH)
VHH: EVQLVESGGGLVQPGGSLRLSCAASGFTLDYYAMGWFRQAPGKEREFVAYVFGGGEITDYADSVKGRFTISADNSKNTAYLQMNSLKPEDTAVYYCANGNGVAETWGQGTLVTVSS
B22: the “100 nM FACS (MFI Ratio)” value in test [1] was determined as 11.8 ratio. In test [2], this molecule had a Kd of 5.82 nM, a koff of 0.00147 s⁻¹ and a kon of 252000 M⁻¹ s⁻¹.

Values taken from patent publication US20230265179A1 (TWIST BIOSCIENCE, published 2023).
